From patent publication US20130209481A1 (University of California, published 2013) come the findings set out here.

Test [1] addresses T1, yeast displayed EphA2 extracellular domain (EphA2 ECD, aa 25-534) (Homo sapiens (Human), UniProt P29317 25-534).
T1 construct: also called Y-EphA2; Y-EphA2 ECD
Briefly: phage recovery: 10^11 phage with 10^8 yeast cells, elution and titration.

Test [2] concerns the target T1, yeast displayed EphA2 extracellular …. The experiment in a line: yeast displayed antigen incubated with 10^9 phage, titer of bound phage.
The target of test [3] is T2, yeast displayed CD44 link domain (CD44 ECD domain 1, aa 21-169) (Homo sapiens (Human), UniProt P16070 21-169).
T2 construct: also called Y-CD44 D1; Y-CD44 ECD D1
T2 sequence (P16070 21-169 limits assumed): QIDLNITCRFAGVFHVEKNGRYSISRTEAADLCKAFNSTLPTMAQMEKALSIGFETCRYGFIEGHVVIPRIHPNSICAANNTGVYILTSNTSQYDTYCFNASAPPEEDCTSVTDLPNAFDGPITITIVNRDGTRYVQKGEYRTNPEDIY
Briefly: yeast displayed antigen incubated with 10^9 phage, titer of bound phage (mismatched pair).

Test [4] addresses T3, EphA2 on the surface of MDAMB231 cells (native EphA2) (human, UniProt P29317 24-976).
T3 construct: whole, on cells; from NP40 cell extracts in the immunoprecipitation; also called native antigen; receptor from cell extracts of MDAMB231 cells
The experiment in a line: flow cytometry of phage antibody on MDAMB231 cells.

For test [5], the target named is T1, yeast displayed EphA2 extracellular …. The experiment in a line: flow cytometry of monoclonal phage antibody on yeast displayed EphA2 ECD.
Test [6] addresses T3, EphA2 on the surface of MDAMB231 cells …. Briefly: flow cytometry competition on MDAMB231 cells; competitors: phage antibodies D2-1A7 and D2-1A9. For orientation: A flow cytometer gives signals particle by particle.
Test [7] concerns the target T2, yeast displayed CD44 link domain (CD44 …). Briefly: flow cytometry of monoclonal phage antibody on yeast displayed CD44 domain 1.
The target is the same in test [8]. Briefly: fd phage antibody selected on yeast displayed antigen; screened by flow cytometry as in Examples 4 and 5.
In test [9] the target is T1, yeast displayed EphA2 extracellular …. Briefly: phagemid antibody selected on yeast displayed antigen; screened by flow cytometry as in Examples 4 and 5.
Test [10] shares this target. The experiment in a line: fd phage antibody selected on yeast displayed antigen; screened by flow cytometry as in Examples 4 and 5.

Positions count from the first letter of the chain named.

T3 sequence (P29317 24-976): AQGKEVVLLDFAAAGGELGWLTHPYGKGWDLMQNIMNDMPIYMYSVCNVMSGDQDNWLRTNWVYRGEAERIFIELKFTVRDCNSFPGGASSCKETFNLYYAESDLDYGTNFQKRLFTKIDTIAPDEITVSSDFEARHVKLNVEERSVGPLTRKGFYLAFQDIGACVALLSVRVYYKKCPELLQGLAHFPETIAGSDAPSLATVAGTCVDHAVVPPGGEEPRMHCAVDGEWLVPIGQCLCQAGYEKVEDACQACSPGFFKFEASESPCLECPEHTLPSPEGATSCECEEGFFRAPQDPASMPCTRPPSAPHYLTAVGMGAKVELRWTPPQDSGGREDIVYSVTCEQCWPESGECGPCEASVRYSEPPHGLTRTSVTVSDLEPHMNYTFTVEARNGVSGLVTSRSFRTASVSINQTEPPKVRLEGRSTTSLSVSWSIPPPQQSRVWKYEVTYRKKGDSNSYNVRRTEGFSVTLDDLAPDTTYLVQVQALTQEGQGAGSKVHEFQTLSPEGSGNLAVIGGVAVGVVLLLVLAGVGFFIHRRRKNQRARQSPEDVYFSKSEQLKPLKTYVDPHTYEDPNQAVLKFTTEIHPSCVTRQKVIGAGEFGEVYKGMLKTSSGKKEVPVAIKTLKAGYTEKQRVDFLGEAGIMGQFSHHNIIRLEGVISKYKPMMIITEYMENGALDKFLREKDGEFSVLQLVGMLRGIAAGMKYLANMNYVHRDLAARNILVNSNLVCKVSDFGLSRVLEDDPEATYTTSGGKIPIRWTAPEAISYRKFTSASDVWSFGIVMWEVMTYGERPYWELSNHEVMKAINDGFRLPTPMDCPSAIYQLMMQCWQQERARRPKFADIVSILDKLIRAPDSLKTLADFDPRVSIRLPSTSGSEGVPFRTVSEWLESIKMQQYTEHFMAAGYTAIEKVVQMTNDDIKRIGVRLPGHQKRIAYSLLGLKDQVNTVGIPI
T1 sequence (P29317 25-534 limits assumed): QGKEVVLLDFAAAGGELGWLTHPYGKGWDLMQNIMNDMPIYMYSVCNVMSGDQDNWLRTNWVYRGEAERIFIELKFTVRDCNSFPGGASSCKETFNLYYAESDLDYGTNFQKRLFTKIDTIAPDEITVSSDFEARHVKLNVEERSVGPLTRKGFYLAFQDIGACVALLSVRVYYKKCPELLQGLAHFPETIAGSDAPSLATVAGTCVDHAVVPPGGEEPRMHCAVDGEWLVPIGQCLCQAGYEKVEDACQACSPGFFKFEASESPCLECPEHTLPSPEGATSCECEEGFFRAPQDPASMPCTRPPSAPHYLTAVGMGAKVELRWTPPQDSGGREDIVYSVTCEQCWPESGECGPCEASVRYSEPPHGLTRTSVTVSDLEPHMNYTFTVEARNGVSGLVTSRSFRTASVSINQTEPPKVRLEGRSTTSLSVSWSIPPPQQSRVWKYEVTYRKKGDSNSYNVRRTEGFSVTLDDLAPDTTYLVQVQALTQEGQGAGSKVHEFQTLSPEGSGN

B1: anti-EphA2 human scFv 2D6 (scFv, V domains shown)
VH: QVQLQESGGGLVQPGGSLRLSCAASGFTFSSYAMSWVRQAPGKGLDWVSIIYNGDNTYYADSVKGRFTISRDNSKNSLYLQMNSLRAEDTAVYYCARWSGTSYDYWGQGTLVTVSS
VL: SELTQDPAVSVALGQTVRITCQGDSLRSYYASWYQQKPGQAPLLVIYGENNRPSGIPDRFSGSSSGNTASLTITGAQAEDEADYYCHSRDSSGTHLRVFGGGTKVTVLG
notes: scFv; soluble scFv with C-terminal (His)6 tag (pUC119mycHis) in the immunoprecipitation; also called anti-EphA2 phage antibody 2D6; PhAb-EphA2
As to B1, in [1], the “fold recovery of phage against recovery from yeast displaying an irrelevant scFv (Y-CON)” value was above 10000 fold. Further, the “PhAb Output/Input” value in [2] is 0.06 ratio of output/input phage; in [3], 1e-06 ratio of output/input phage.

B2: anti-EphA2 human scFv D2-1B1 (scFv, V domains shown)
VH: QVQLQESGGGVVQPGRSLRLSCAASGFTFSSYGMHWVRQAPGKGLEWVAVISYDGSNKYYADSVKGRFTISRDNSKNTLYLQMNSLRAEDTAVYYCAKVIAGGAYYGSADYWGQGTLVTVSS
VL: B1 VL with R18K, S28T, L43V, N51S, V105L
In the case of B2, the binding result in [4] and in [5] was “binds” in each case.

B3: anti-EphA2 human scFv D2-1A7 (scFv, V domains shown)
VH: QVQLQQSGGGVVQPGRSLRLSCAASGFTFSSYAMHWVRQAPGKGLEWVAVISYDGSNKYYADSVKGRFTISRDNSKNTLYLQMNSLRAEDTAVYYCARASVGATGPFDIWGQGTMVTVSS
VL: B1 VL with R18S, H87N, R97T, V105L
notes: soluble scFv with C-terminal (His)6 tag in the immunoprecipitation; also called anti-EphA2 phage D2-1A7
For B3, the binding result in test [4] and in test [5] was “binds” throughout.

B4: recombinant mouse Ephrin A1 with human Fc fusion protein (R&D Systems) (Fc fusion, UniProt P52793 19-182, looked up)
chain: DRHIVFWNSSNPKFREEDYTVHVQLNDYLDIICPHYEDDSVADAAMERYTLYMVEHQEYVACQPQSKDQVRWNCNRPSAKHGPEKLSEKFQRFTPFILGKEFKEGHSYYYISKPIYHQESQCLKLKVTVNGKITHNPQAHVNPQEKRLQADDPEVQVLHSIGYS
notes: Bought reagent; also called rEphrinA1-human Fc fusion protein; not shown: human Fc
Regarding B4, in test [6], the “fold difference between the IC50 of ephrin A1 against D2-1A7 and against D2-1A9” value is 9 fold.

B5: anti-CD44 human scFv F2-1A6 (scFv, V domains shown)
VH: QVQLVQSGAEVKKPGESLKISCKGSGYSFTSYWIGWVRQMPGKGLEWMGIIYPGDSDTRYSPSFQGQVTISADKSISTAYLQWSSLKASDTAMYYCARRLHGPFYFDYWGQGTLVTVSS
VL: SELTQDPAVSVALGQTVRITCQGDSLRSYYASWYQQKPGQAPLLVIYGKNIRPSGIPDRFSGSSSGNTASLTITGAQAEDEADYYCNSRDSSGNHVVFGGGTKLTVLG
notes: soluble scFv with C-terminal (His)6 tag in the immunoprecipitation; also called anti-CD44 phage F2-1A6
As to B5, the binding result in [7] is “binds”.

B6: anti-EphA2 human scFv D2-1A9 (scFv, V domains shown)
VH: QVQLVESGGGLIQPGGSLKLSCAASGFTVSNSYMSWVRQAPGKGLEWVAVIYSAGNTYYADSVKGRFTISRDTSNNTVHLQMNSLRPEDTAVYYCAREGSFGYDYRGQGTLVTVSS
VL: DIVMTQSPGTLSLSPGERATLSCRASQSVSSSFLGWYQQKPGQAPRLLIYGASSRATGIPDRFSGSGSGTDFTLTISRLEPEDFAVYYCQQYGISPLTFGGGTKVEIKR
notes: also called anti-EphA2 phage D2-1A9
In the case of B6, the binding result in [4] and in test [5] was “binds” throughout.

B7: E8H7 (scFv)
scFv: QVQLQESGGGLVQPGGSLRLSCSASGFTFSSYAMHWVRQAPGKGLEYVSAISSNGGSTYYADSVKGRFTISRDNSKNTLYLQMSSLRAEDTAVYYCVARLEWLPLAWDYWGQGTLVTVSSGGGGSGGGGSGGGGSSELTQDPAVSVALGQTVRITCQGDSLRSYYASWYQQKPGQAPVLVIYGKNNRPSGIPDRFSGSSSGNTASLTITGAQAEDEADYYCNSRDSSGNHKVFGGGTKLTVLG
notes: also called fd phage antibody E8H7
As to B7, the binding result in test [8] is reported as “binds”.

B8: 1A12 (scFv)
scFv: QVQLQESGGGLVQPGGFLRLSCAASGFTFSSYGMHWVRQTPGKGLEWVSYISSSSSYTNYADSVKGRFTISRDNSKNTLYLQMNSLRAEDTAVYYCARDNWYFDLWGRGTLVTVSSGGGGSGGGGSGGGGSDVVMTQSPSTLSASVGDRVSITCRASESISRWLAWYQQKPGKAPKALIYKASSLESGVPSRFSGSGSATEFTLTINSLQPDDFATYYCQQYSSYPLTFGQGTKVDIKR
notes: also called phagemid antibody 1A12
For B8, the binding result in test [9] is reported as “binds”.

B9: E8F11 (scFv)
scFv: QVQLQQSGGGLVQPGGSLRLSCAASGFTFSSYAMSWVRQAPVKGLEWVSAISGSGGSTYYADSVKGRFTISRDNSKNTLYLQMNSLRIEDTAVYYCGRHLSSGSSVDYWGQGTLVTVSSGGGGSGGGGSGGGGSSELTQPPSASGSPGQSVTISCTGTSSDVGGYNYVSWYQQRPGYAPKLMIYDVSNRPSGVSNRFSGSKSGNSASLDISGLQSEDEADYYCAAWDDSLREFLFGTGTKVTVLG
notes: also called fd phage antibody E8F11
In the case of B9, the binding result in test [8] is listed as “binds”.

B10: A3H9 (scFv)
scFv: QVLLVESGGGVVQAGASLRVSCAASGFSLTSYGMHWVRQAPGKGLEWVAFISSDGSDKYYVDSVKGRFTISRDTSKNMMYLQMNSLTTEDTAVYYCAKDWGSNWYLFDYWGQGTLVTVSSGGGGSGGGGSGGGGSQSVLTQPPSASETPGQRVTISCSGSSSNIGANTVHWYQQFPGTAPKLLIYSYSQRPSGVPDRFSDSKSGTSASLAISGLQSEDEADYYCAAWDDILNGWVFGGGTKVTVLG
notes: also called fd phage antibody A3H9
Turning to B10, in test [10], the binding result is “binds”.
